Reference: publication PMC10621737

Biological target: T1, rMtbEspR (Mycobacterium tuberculosis H37Rv, UniProt P9WJB7 1-132)
T1 sequence: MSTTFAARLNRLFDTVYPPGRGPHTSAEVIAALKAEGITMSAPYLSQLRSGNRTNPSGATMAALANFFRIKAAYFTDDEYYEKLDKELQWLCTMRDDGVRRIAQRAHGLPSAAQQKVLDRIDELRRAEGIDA
Test: EMSA; poly(dI-dC) 50 ng/ml
Conditions: protein: recombinant; tags: N- and C-terminal 6xHis; chain copies: 2; label: 32P 5' end (T4 PNK); blunt

Row | Binder | binding result
1 | IL-4 promoter full EMSA probe (FL) (dsDNA) DNA 1: CTATGCAAAGCAAAAAGCCAGCAGCAGCCCCAAGCTGATAAGATTAATCTAAAGAGCAAATTATGGTG DNA 2: CACCATAATTTGCTCTTTAGATTAATCTTATCAGCTTGGGGCTGCTGCTGGCTTTTTGCTTTGCATAG | binds
2 | HIV LTR EMSA probe (dsDNA) DNA 1: CAGTTGAACCAGAGCAAGTAGAAGAGGCC DNA 2: GGCCTCTTCTACTTGCTCTGGTTCAACTG | no binding
3 | IFN-gamma promoter EMSA probe (dsDNA) DNA 1: GAATTTCGTTTTTCACTTGTTCCCAACCACAAGCAAATGATCAATGT DNA 2: ACATTGATCATTTGCTTGTGGTTGGGAACAAGTGAAAAACGAAATTC | no binding
